# Test results reported in patent US20070054848.
# Biological target: recombinant full-length p21 (1-164 in SEQ ID NO: 23)
# Sequence (chain, as listed by the source): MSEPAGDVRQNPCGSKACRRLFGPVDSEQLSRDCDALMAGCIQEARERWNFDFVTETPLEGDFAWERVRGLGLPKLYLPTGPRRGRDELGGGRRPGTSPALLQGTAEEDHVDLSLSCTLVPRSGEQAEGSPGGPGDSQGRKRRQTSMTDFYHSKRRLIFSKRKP
protein,measurement,value
"Rho kinase fragment (aa 1-543, Upstate Biotechnology) (protein) MSRPPPTGKMPGAPETAPGDGAGASRQRKLEALIRDPRSPINVESLLDGLNSLVLDLDFPALRKNKNIDNFLNRYEKIVKKIKGLQMKAEDYDVVKVIGRGAFGEVQLVRHKASQKVYAMKLLSKFEMIKRSDSAFFWEERDIMAFANSPWVVQLFYAFQDDRYLYMVMEYMPGGDLVNLMSNYDVPEKWAKFYTAEVVLALDAIHSMGLIHRDVKPDNMLLDKHGHLKLADFGTCMKMDETGMVHCDTAVGTPDYISPEVLKSQGGDGFYGRECDWWSVGVFLYEMLVGDTPFYADSLVGTYSKIMDHKNSLCFPEDAEISKHAKNLICAFLTDREVRLGRNGVEEIRQHPFFKNDQWHWDNIRETAAPVVPELSSDIDSSNFDDIEDDKGDVETFPIPKAFVGNQLPFIGFTYYRENLLLSDSPSCRENDSIQSRKNEESQEIQKKLYTLEEHLSNEMQAKEELEQKCKSVNTRLEKTAKELEEEITLRKSVESALRQLEREKALLQHKNAEYQRKADHEADKKRNLENDVNSLKDQLEDL","Rho-kinase activity toward S6 kinase substrate peptide ([γ-32P] ATP, scintillation counting)",the estimated IC50 value was 1.43 nM
